Assay results as given in publication PMC2845550, “Heterologous expression of leader-less pga gene in Pichia pastoris: intracellular production of prokaryotic enzyme” (BMC Biotechnology, 2010).

How the values were obtained:
purified protein [1] = substrate: O=C(Cc1ccccc1)Nc1ccc([N+](=O)[O-])c(C(=O)O)c1; assay: purified protein; assay type: biochemical, Escherichia coli; conditions: 50 mM phosphate buffer, pH 8, 37 °C, substrate 7-2000 μM
purified protein [2] = substrate: CC1(C)S[C@@H]2[C@H](NC(=O)Cc3ccccc3)C(=O)N2[C@H]1C(=O)O; assay: purified protein; assay type: biochemical, Escherichia coli; conditions: 37 °C, substrate 5-100 μM

B1: PGAEc (Escherichia coli) (protein)
chain 1: EQSSSEIKIVRDEYGMPHIYANDTWHLFYGYGYVVAQDRLFQMEMARRSTQGTVAEVLGKDFVKFDKDIRRNYWPDAIRAQIAALSPEDMSILQGYADGMNAWIDKVNTNPETLLPKQFNTFGFTPKRWEPFDVAMIFVGTMANRFSDSTSEIDNLALLTALKDKYGVSQGMAVFNQLKWLVNPSAPTTIAVQESNYPLKFNQQNSQTA
chain 2: SNMWVIGKSKAQDAKAIMVNGPQFGWYAPAYTYGIGLHGAGYDVTGNTPFAYPGLVFGHNGVISWGSTAGFGDDVDIFAERLSAEKPGYYLHNGKWVKMLSREETITVKNGQAETFTVWRTVHGNILQTDQTTQTAYAKSRAWDGKEVASLLAWTHQMKAKNWQEWTQQAAKQALTINWYYADVNGNIGYVHTGAYPDRQSGHDPRLPVPGTGKWDWKGLLPFEMNPKVYNPQSGYIANWNNSPQKDYPASDLFAFLWGGADRVTEIDRLLEQKPRLTADQAWDVIRQTSRQDLNLRLFLPTLQAATSGLTQSDPRRQLVETLTRWDGINLLNDDGKTWQQPGSAILNVWLTSMLKRTVVAAVPMPFDKWYSASGYETTQDGPTGSLNISVGAKILYEAVQGDKSPIPQAVDLFAGKPQQEVVLAALEDTWETLSKRYGNNVSNWKTPAMALTFRANNFFGVPQAAAEETRHQAEYQNRGTENDMIVFSPTTSDRPVLAWDVVAPGQSGFIAPDGTVDKHYEDQLKMYENFGRKSLWLTKQDVEAHKESQEVLHVQR
notes: mature periplasmic heterodimer cut from 846-residue preproprotein; homologous expression in E. coli RE3(pKA18), untagged
In the case of B1, the Km (purified protein [1]) is reported as 28 µM, the Vmax (purified protein [1]) is reported as 15000 µM/min and the kcat (purified protein [1]) is reported as 1.6 s⁻¹. It also gave a Km (purified protein [2]) of 34 µM and a kcat (purified protein [2]) of 13.6 s⁻¹.
